B1: TPR t1 (parent)
chain: GACCAAUCUGCCCUCAGAGCUCGAGAACAUCUUCGGAUGCAGAGGAGGCAGGCUUCGGUGGCGCGAUAGCGCCAACGUCCUCAACCUCCAAUGCAUCCCACCACAUGAUGAUGCCUGAAGAGCCUUGGUUUUUUG

Variants of: B1
Assay: polymerase ribozyme fitness, log enrichment relative to wild type (log ratio); higher = more active; in vitro selection for triplet polymerase activity
Summary of the method: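 Only genotypes with ≥10 input reads and ≥1 read per output were kept after Illumina sequencing of input and output libraries. These libraries were PCR-built, transcribed mutants of each subunit of a heterodimeric triplet polymerase ribozyme, each put through one triplicate in vitro selection round with frozen incubation at −7 °C, gel excision of extended constructs, streptavidin-bead capture and RT-PCR. Fitness is a logarithmic ratio of genotype enrichment to wild-type enrichment, from inverse-variance-weighted replicate averages, with the logarithm in base 2.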

Point of comparison: A6C G39U G63A, “polymerase ribozyme fitness (log ratio)” value -1.63. Against it:
- U7A C73G U116G — lower, -2.7
- A6C C53U A74G C80U A118G — within 0.2 log units, -1.6
- A5U G60C U96A C101A A119U — lower, -2.53
- A6U C22G U87A U92C A121U — lower, -2.63
- A6C C8G C72A — higher, 0.431
- A5U U7A C15A G44A C56A G60A — lower, -3.35
- A6U C11G U112A U126A — higher, 1.81
- A6G A41U C70U C124A — higher, -0.611
- A6U G48A A91C C114A — lower, -2.36
- U7C C8G C79A G110A — lower, -2.4
- A6C G10A C15A G25A A43U G45C C86G U106G G113U — lower, -7.45
- A6U G48C — higher, -0.598
- U7A A16C C115A — lower, -2.49
- A6U C12A G48U U106G — within 0.2 log units, -1.45
- A6G A66U C73G A75U C80U G120U U129G — lower, -4.99
- A6U C56G U129A — lower, -2.48
- A6U C80A A95U G120A U130G — lower, -3.72
- U7A C8A G19U C97G A105G C124U — lower, -7.51
- A6G G47A C53U U59C — higher, -1.37
- A6U C98A — lower, -3.74
- U7A G93C — higher, -0.696
- A6U C15A C56A A105C — lower, -4.85
- U7A C8A C11U C34U G48U C53A C72A — lower, -5.13
- U7C A37U C73A — higher, -0.516
- A6U G42C C73G — lower, -2.29
- A6U C11A C12U A37G G61A — higher, -1.24
- A6U C40U C56U G69C A121C — lower, -6.3
- A6C C88G C115G — lower, -4.52
- A5U U131A — lower, -2.48
- A6C C13A A37U C82U — lower, -2.7
- U7C C11A C22A — lower, -5.95
- U7A C20U — higher, -0.343
- A6C C85U C101U G110U — lower, -3.01
- A6C G93C A121G G127C — higher, 0.208
- A6U A26U G39A C49G G61A C88U C124G — lower, -3.73
- A6C G48A G71U C82A — higher, -1
- A6U C11A C13G G47A G48A A74C A118G — lower, -5.36
- A6U C40G G42C C76A C94U U112C G122A — lower, -2.22
- A6C C15U C70U C101A U130G — lower, -4.08
- U7A G61A C73A C104G U109C — lower, -6.61
- A6C U38A A43U — lower, -3.16
- A6U G120C — higher, 1.12
- A6U G120U — higher, -0.0286
- A6U C49G C62A U78C C88A A119U — lower, -3.67
- A6C C8G U92G A121C C123G — higher, 0.289
- A6C C11A — lower, -2.65
- U7A G19U C73G U92A — lower, -4.76
- A6U U7G C8G C56A G63A — lower, -2.06
- A6G G48U U54A C79U U87A — lower, -4.01
- U7A C89U — higher, -0.565
- A5U U55G A95U U129G — higher, -1.03
- U7A G63C U81G — lower, -4.09
- A6U C8G G44U C49A C72A G77U G120C U130G — lower, -1.84
- U7A A66G U87C C94U G110U — lower, -2.5
- U7C A16G C70A C94U C104U U112A — higher, -1.32
- A6C U78A — higher, 0.00944
- A6U C102A C123G — higher, -0.023
- A6C A26G U38G C53G — lower, -5.37
- U7A C73G U129G — lower, -2.6
- U7C A74C — higher, 0.236
- U7A C8G A16C A46U — higher, -0.61
- A6U C53U G61C G77C C104A — lower, -2.75
- A6U C49U C53U A84C — higher, -0.896
- A6C — higher, -0.236
- A6U — higher, 0.173
- A6G — higher, 0.335
- U7C A16U C79U C85A — lower, -4.35
- U7A U14A C86U A90U — lower, -3.61
- A6G U7G A37G G48U — higher, 0.0457
- U7A C12U C62A G113C — lower, -3.19
- A5U G51A G113A C124A — lower, -3.34
- A6G C70A C97U — within 0.2 log units, -1.59
- A6C C73G — higher, -0.957
- A6G C11G G17C G36C C97U — lower, -5.22
- A6G U54C A66G C80U — lower, -2.2
- A6U G71A A83G — lower, -1.85
- A6U G58A U81A G110A A118C — lower, -2.44
- A6C G35A — lower, -4.12
- A6C U7G A29G G48C G61A A95C — lower, -2.21
- U7A U14G G17C C82G C102A C114G — lower, -5.18
- A6U U54A — higher, -0.507
- A6G G71A G120C — higher, 0.128
- U7A A50U C64U — higher, -0.349
- U7A U78C G93U G113C — lower, -3.01
- A6U C15U A26G C86U A100U G120A C123A U125G — lower, -5.49
- A6U C115U A119U U130G — higher, -1.27
- A6U C56G G110U — higher, -1.25
- A6U C22U — lower, -3.04
- U7A C56U G120U — higher, 0.935
- A6U G63C C80A — lower, -3.25
- A6G C49G G51U C73G U133A — lower, -2.49
- A6U C11U U55G A83U U106A G128U U130C — within 0.2 log units, -1.47
- U7A U55G — higher, -0.938
- A6G C12U — higher, -0.282
- A6C G57A C62G G120C — lower, -4.68
- A6U C20U U21G G69C A121U — higher, -0.95
- A6G C8G G10U C76A G117C C124A — lower, -2.05
- U7A C22A C40G A68U A84C G110C — lower, -6.51
- U7A C56G U92C — within 0.2 log units, -1.74
- A6C C12U A46G A118G — higher, 0.142
- A6C G52U G63A — higher, -0.684
- A6C U78A C94G U106G — lower, -3.64
- A5U G110A — higher, -1
- U7C A41U C123G U131A — higher, 0.484
- A6U C72U C76G C98U — higher, -1.11
- A6U A18G G93A — lower, -5.43
- A6G C13U C22U G44C — lower, -5.6
- A6U C49U G60U C94G G113A — lower, -2.65
- A6G C56A G69U C104U — higher, -0.478
- A6C A50C U59C C72U U92G — lower, -4.39
- A6G A24G G36U C49A — lower, -3.79
- A5U G57A G63U U78C A95C C115A — lower, -3.19
- U7A G35C A41C C64U C79U G113U — lower, -7.12
- A6U C115U — higher, -1.06
- U7A C13G G63U G93A C102G C115U A121G — lower, -7.01
- A6G C12A G117A — lower, -2.34
- U7C A74G G110A A118U — higher, -0.453
- A6U G71U — higher, -0.239
- A6U G71A — higher, -0.461
- A6U C70A A91G — lower, -2.94
- A6G G10U C56U C94U G135U — lower, -1.99
- A6G G69A C115A G120A — higher, -1.22
- U7A C15U C56A G69U U106G G120C — higher, -0.793
- A6U G63C C80U G93C U106A — lower, -3.58
- U7A G48A A50G G77A C101U U109A — lower, -5.13
- A6U G44A A50U C94G — lower, -4.1
- U7A A16U C49U C124U — higher, 1.1
- A6U C11U C28U C34A C73A G110A — higher, 0.315
- A5U G44C — higher, -1.05
- A6C U131A — higher, -0.317
- A5U G45U A46C — within 0.2 log units, -1.71
- A5U U7G G47A C72A — higher, -0.365
- U7A G45U C56G A66G — lower, -3.29
- U7C A16C G52C G110A U130A — lower, -5.74
- U7C A43U C72G A90G C124A U125G U133C — higher, -0.0724
- A5U G117C — lower, -2.92
- A6U C62A — higher, -1.01
- A6U C53U — higher, 0.192
- A6U C15A G113A — lower, -4.98
- A6U U78A C115G U116G — lower, -2.95
- A6U G128A — lower, -2.02
- A5U U9A — higher, -0.246
- A6G A18U — higher, -1.31
- A6G C11G C12U C40G G44U G93A — lower, -2.75
- A6C C70U C73G — lower, -2.81
- A6G C13A G17A A95G — lower, -3.46
- A6U C56A C94A U106A C124A — higher, 0.262
- A6U C20U A37U G61A — higher, -0.862
- A6U U14A C86A U96A — lower, -6.24
- A6C C40U G44A A121U — higher, 0.36
- A6U C8A G71C C115A U116A A121G U131A — lower, -2.72
- A6G G51A A75U C88G U92C — lower, -6.38
- A6G G48A G69A U129G — lower, -5.25
- A6U C53U G69U G128C — higher, -0.945
- A6U G44U — within 0.2 log units, -1.52
- A6U G44A — higher, -1.02
- A6U A90U C114A U116G — lower, -3.49
- A6C C53G C72A C123U U133C — higher, 0.968
- A6C C11G G36U C40G U106A U130A — lower, -4.89
- A6G A41G U87A G110A U125G — lower, -3.92
- A6C C114U — lower, -2.3
- A5U U54G — higher, -0.237
- U7A C11A U81A — higher, -1.32
- A6C C70U U129A — lower, -2.82
- U7A A43C U129G — lower, -4.22
- U7A G57U — higher, -0.259

— the RNAGym collection of RNA variant scans (doi:10.1073/pnas.2313332121)
